Patent US20260166131

Molecular target: custom-expressed human TDP-43 (Nanjing GenScript Biotechnology Co., Ltd., C134WHE160-2/P5HF001), Q13148
Sequence (Q13148 whole entry): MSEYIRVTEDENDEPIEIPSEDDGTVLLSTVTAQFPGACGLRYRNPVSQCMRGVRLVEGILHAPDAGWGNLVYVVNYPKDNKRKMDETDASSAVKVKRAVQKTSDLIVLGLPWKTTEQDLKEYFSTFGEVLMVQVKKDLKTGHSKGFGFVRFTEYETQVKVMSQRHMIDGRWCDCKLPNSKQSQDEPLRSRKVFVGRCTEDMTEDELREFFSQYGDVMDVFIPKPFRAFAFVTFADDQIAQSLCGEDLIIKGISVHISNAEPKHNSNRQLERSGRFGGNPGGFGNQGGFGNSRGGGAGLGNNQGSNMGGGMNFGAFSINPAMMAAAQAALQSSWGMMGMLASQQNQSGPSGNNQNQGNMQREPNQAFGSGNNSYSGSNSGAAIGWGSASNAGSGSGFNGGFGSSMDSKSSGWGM

B1: human plasminogen purified from human donor plasma (protein)
chain: KVYLSECKTGNGKNYRGTMSKTKNGITCQKWSSTSPHRPRFSPATHPSEGLEENYCRNPDNDPQGPWCYTTDPEKRYDYCDILECEEECMHCSGENYDGKISKTMSGLECQAWDSQSPHAHGYIPSKFPNKNLKKNYCRNPDRELRPWCFTTDPNKRWELCDIPRCTTPPPSSGPTYQCLKGTGENYRGNVAVTVSGHTCQHWSAQTPHTHNRTPENFPCKNLDENYCRNPDGKRAPWCHTTNSQVRWEYCKIPSCDSSPVSTEQLAPTAPPELTPVVQDCYHGDGQSYRGTSSTTTTGKKCQSWSSMTPHRHQKTPENYPNAGLTMNYCRNPDADKGPWCFTTDPSVRWEYCNLKKCSGTEASVVAPPPVVLLPDVETPSEEDCMFGNGKGYRGKRATTVTGTPCQDWAAQEPHRHSIFTPETNPRAGLEKNYCRNPDGDVGGPWCYTTNPRKLYDYCDVPQCAAPSFDCGKPQVEPKKCPGRVVGGCVAHPHSWPWQVSLRTRFGMHFCGGTLISPEWVLTAAHCLEKSPRPSSYKVILGAHQEVNLEPHVQEIEVSRLFLEPTRKDIALLKLSSPAVITDKVIPACLPSPNYVVADRTECFITGWGETQGTFGAGLLKEAQLPVIENKVCNRYEFLNGRVQSTELCAGHLAGGTDSCQGDSGGPLVCFEKDKYILQGVTSWGLGCARPNKPGVYVRVSRFVTWIEGVMRNN
**Q.** B1 was tested. Which “Western blot and band density of TDP-43 after 3 h at 37 C with plasminogen in normal mouse brain homogenate” value did it give?
**A.** the amounts of TDP-43 monomer, HMW and LMW in the plasminogen group are significantly lower than those in the vehicle control group
